{"source": "paper PMC5841623", "about": "(Journal of molecular biology, 2016)", "target": "Recombinant DnaJ-1-HA (Drosophila, UniProt Q24133 1-334)", "sequence (Q24133 whole entry)": "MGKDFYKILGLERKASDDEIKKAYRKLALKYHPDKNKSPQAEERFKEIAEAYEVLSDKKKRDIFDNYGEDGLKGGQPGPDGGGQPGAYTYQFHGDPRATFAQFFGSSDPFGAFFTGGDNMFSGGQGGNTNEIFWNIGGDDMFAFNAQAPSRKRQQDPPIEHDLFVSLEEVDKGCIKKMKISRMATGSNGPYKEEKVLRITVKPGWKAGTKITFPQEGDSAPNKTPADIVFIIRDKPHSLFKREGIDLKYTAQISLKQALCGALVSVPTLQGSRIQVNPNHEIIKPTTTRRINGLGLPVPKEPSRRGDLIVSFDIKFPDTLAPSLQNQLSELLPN", "assay": "co-IP"}
{"binder": "Recombinant His-MLF (natural protein, Drosophila, UniProt Q9NKV0-2 1-309, looked up) MSLFGALMGDFDDDLGLMNNHMNHTMNAMNMQMRSMNRLMNSFMPDPFMQVSPFDQGFQQNALMERPQMPAMPAMGLFGMPMMPNFNRLLNADIGGNSGASFCQSTVMTMSSGPDGRPQIYQASTSTKTGPGGVRETRRTVQDSRTGVKKMAIGHHIGERAHIIEKEQDMRSGQLEERQEFINLEEGEAEQFDREFTSRASRGAVQSRHHAGGMQAIMPARPAAHTSTLTIEPVEDDDDDDDDCVIQEQQPVRSSAGRHYSSAPTAPQNSIHPHPYAANPRRQQRAVKHFHTEDEAASSYKAVKRGKKK", "values": [{"measurement": "binding result", "result": "binds"}]}
